Data reported in publication PMC7744066.

Target: Aldob (aldolase B) (UniProt P05062)
Assay: anti-Flag (Aldob) co-IP, Myc-Akt1 blot
Details: reference: Myc-Akt1 wild type

| binding against the reference (sites S473) | binding against the reference (sites T308) | Substance |
| --- | --- | --- |
| weaker | – | Akt1 (from UniProt P31749) Myc-Akt1 S473A |
| – | weaker | Akt1 (from UniProt P31749) Myc-Akt1 T308A |
